Assays:
[1] = molecular target: T1, human transferrin receptor (TfR) (human, UniProt P02786 1-760); assay: FACS on LS-174T cells, scFv on phage, anti-M13 detection (FIG. 7)
T1 construct: whole, on cells; Always the endogenous receptor on human tumour cell lines; no recombinant TfR was used; also called TfR/CD71

[2] = molecular target: T1, human transferrin receptor (TfR); assay: cell-based or functional assay
[3] = molecular target: T2, murine TfR (murine, UniProt Q62351 1-763); assay: flow cytometry on murine Ba/F3 cells, 10 µg/ml, anti-human Fc-phycoerythrin (FIG. 18 (b))
T2 construct: whole, on cells; Endogenous receptor on murine cell lines; also called murine transferrin receptor

[4] = molecular target: T2, murine TfR; assay: FACS on murine FMA3 cells, 50 µg/ml, penta-His detection (FIG. 16-d right)

T1 sequence (P02786 whole entry): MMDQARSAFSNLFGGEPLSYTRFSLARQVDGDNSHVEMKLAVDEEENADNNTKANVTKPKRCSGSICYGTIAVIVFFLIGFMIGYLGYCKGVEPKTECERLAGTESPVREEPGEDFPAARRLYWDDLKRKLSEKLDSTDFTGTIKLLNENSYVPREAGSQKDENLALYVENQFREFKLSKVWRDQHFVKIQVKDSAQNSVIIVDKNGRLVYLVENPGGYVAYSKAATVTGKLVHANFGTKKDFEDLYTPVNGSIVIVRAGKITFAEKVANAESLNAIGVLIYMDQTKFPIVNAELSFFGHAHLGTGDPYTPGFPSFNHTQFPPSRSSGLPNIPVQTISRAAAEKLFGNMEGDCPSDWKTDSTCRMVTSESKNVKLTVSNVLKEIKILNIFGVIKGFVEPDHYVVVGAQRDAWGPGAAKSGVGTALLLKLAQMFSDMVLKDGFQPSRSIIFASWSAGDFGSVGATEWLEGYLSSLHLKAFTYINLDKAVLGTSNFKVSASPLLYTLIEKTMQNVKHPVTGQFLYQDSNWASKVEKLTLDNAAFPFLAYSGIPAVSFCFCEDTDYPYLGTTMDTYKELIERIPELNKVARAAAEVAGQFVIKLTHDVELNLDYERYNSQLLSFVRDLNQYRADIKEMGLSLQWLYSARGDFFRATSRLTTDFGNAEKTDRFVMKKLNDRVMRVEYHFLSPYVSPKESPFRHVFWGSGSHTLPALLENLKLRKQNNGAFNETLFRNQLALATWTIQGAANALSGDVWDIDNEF
T2 sequence (Q62351 whole entry): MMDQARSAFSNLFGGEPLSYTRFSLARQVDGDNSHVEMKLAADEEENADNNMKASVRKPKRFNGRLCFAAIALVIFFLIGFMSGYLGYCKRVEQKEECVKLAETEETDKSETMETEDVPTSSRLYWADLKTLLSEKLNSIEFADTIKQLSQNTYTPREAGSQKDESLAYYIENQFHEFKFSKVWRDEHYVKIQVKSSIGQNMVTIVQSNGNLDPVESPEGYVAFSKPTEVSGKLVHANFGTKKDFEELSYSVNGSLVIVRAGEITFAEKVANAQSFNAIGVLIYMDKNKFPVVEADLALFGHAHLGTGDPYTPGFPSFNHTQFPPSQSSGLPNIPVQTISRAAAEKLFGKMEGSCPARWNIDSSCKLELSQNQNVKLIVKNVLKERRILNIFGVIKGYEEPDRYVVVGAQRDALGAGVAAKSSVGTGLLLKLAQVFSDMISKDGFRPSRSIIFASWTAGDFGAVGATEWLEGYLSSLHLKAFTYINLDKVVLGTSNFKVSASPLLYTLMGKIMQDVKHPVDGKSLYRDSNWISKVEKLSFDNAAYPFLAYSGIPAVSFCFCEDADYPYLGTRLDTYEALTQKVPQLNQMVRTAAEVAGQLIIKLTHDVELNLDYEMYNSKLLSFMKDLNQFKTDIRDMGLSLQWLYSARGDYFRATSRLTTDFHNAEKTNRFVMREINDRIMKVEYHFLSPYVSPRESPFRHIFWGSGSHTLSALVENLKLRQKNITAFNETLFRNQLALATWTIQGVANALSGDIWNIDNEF

Binder	binding result [1]	IC50 (µg/ml), proliferation test on the line ERY-1, three days [2] [µg/mL]	also measured
scFv-3TF2 (scFv, Monovalent human scFv, about 28 kDa; on phage or soluble depending on the assay; tags not described; also called anti-TfR scFv) scFv: QVQLQQSGGGVVQPGGSLRLSCAASEFTFSASGMHWVRQAPGKGLEWMAFIAYDGNQKFYADSVKGRFTISRDNSKNTLYLQMDSLRGEDTAVYYCAKEMQREGYFDYWGQGTLVTVSSGGGGSGGGGSGGGGSNFMLTQDPAVSVALGQTVRITCQGDSLRSYYASWYQQKPGQAPVLVIYGKNNRPSGIPDRFSGSKSGNSASLDISGLQSEDEADYYCATWDDNLSGPIFGGGTKVTVLG	binds	–	–
scFv-3 GH9 (scFv, Monovalent human scFv, about 28 kDa; on phage or soluble depending on the assay; tags not described; also called anti-TfR scFv) scFv: QVQLAESGGGLVKPGGSLRLSCAASGFTFSDYYMSWIRQAPGKGLEWVSYISTSGSSIYYVDSVKGRFTISRDNAKNSLYLQMDSLRDDDTAVYYCARDLHGDYAFDSWGQGTLVTVSSGGGGSGGGGSGGGGSSELTQDPAVSVALGQTVRITCQGDSLRSYYASWYQQKPGQAPVLVIYGKNNRPSGIPDRFSGSKSGNSASLDISGLQSEDEADYYCATWDDNLSGPIFGGGTKVTVLG	binds	–	–
scFv-3TF12 (scFv) scFv: QVQLQESGGGLVQPGGSLRLSCAASGFSFNTYTMHWVRQAPGKGLEWVADIAYDGSTKYYADSVKGRFTISRDNAKNSLYLQMNSLRAEDTAVYYCARDAVAGEGYFDLWGRGTLVTVSSGGGGSGGGGSGGGGSQSALTQDPAVSVALGQTVRITCQGDSLRSYYASWYQQLPGTAPKLLIYRNNQRPSGVPDRFSGSKSGTSASLAISGLRSEDEADYYCAAWDDSLSAWVFGGGTKLTVLGA	–	0.35	–
F12-Fc (Fc fusion, Homodimer of about 110 kDa (2 x 55 kDa), made in CHO cells; also called scFv-F12-Fc; antibody F12 in the format scFv-Fc; not shown: constant CH2 and CH3 domains of a human IgG1 (vector pFuse-hG1)) QVQLQESGGGLVQPGGSLRLSCAASGFSFNTYTMHWVRQAPGKGLEWVADIAYDGSTKYYADSVKGRFTISRDNAKNSLYLQMNSLRAEDTAVYYCARDAVAGEGYFDLWGRGTLVTVSSGGGGSGGGGSGGGGSQSALTQDPAVSVALGQTVRITCQGDSLRSYYASWYQQLPGTAPKLLIYRNNQRPSGVPDRFSGSKSGTSASLAISGLRSEDEADYYCAAWDDSLSAWVFGGGTKLTVLGA	–	–	binding result [3]: binds
F12CH (other, Bivalent dimer of the scFv 3TF12, about 55 kDa, made in bacteria, held by a bond that DTT reduces; no Fc; also called anti-TfR F12CH; 3TF12 in the scFvCH format; not shown: tail from the bacterial vector pSYN-HIS-CYS (histidine tag, cysteine for dimerisation)) scFv: QVQLQESGGGLVQPGGSLRLSCAASGFSFNTYTMHWVRQAPGKGLEWVADIAYDGSTKYYADSVKGRFTISRDNAKNSLYLQMNSLRAEDTAVYYCARDAVAGEGYFDLWGRGTLVTVSSGGGGSGGGGSGGGGSQSALTQDPAVSVALGQTVRITCQGDSLRSYYASWYQQLPGTAPKLLIYRNNQRPSGVPDRFSGSKSGTSASLAISGLRSEDEADYYCAAWDDSLSAWVFGGGTKLTVLGA	–	0.1	binding result [4]: binds
scFv-3TG9 (scFv, Monovalent human scFv, about 28 kDa; on phage or soluble depending on the assay; tags not described; also called anti-TfR scFv) scFv: QVQLVESGGGLVEPGGSLRLSCAASGFTFSNYAINWVRQAPGKGLEWVANIHHDGNGKYYVDSVEGRFTISRDNAKNSLYLQMDSLRAEDTAIYYCARDGYGGYLDLWGQGTLVTVSSGGGGSGGGGSGGGGSSELTQDPAVSVALGQTVRITCQGDSLRSYYASWYQQKPGQAPVLVIYGKNNRPSGIPDRFSGSGSGNTASLTITGAQAEDEADYYCAAWDDSLSGPVFGGGTKVTVLG	binds	–	–
